Assay results as given in EP4634231A1 (dated 2025).
Each block holds one binder with its values, some of them ahead of it.

Columns and labels:
[1] = biological target: T1, MUC-16 (CA125) expressed on SW1990 and OVCAR3 cancer cells (human, UniProt Q8WXI7 1-14507); experiment: flow cytometry on MUC16 expressing cancer cells
T1 construct: whole, on cells

[2] = biological target: T1, MUC-16 (CA125) expressed on SW1990 and …; experiment: flow cytometry saturation binding (MFI against concentration) on MUC-16 expressing SW1990 and OVCAR3 cells

EC50 [1]: 10 nM
B1: 89Zr-DFO-M16Ab, M16Ab conjugated with p-SCN-Bn-DFO and radiolabeled with 89Zr (antibody, V domains shown)
VH: QVQLVESGGGVVQPGGSLRLSCAASGFTFSTYGMHWVRQAPGKGLEWVAVISYDGSNKYYADSVKGRFTISRDNTNNSLYLQMSGLRAEDSAVYYCAKDVYGDFAVDSWGQGTLVTVSS
VL: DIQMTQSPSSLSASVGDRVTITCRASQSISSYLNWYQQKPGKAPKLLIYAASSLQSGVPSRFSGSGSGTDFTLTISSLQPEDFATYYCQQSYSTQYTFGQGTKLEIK
modifications: p-SCN-Bn-DFO chelator loaded with 89Zr; sites not stated
notes: also called 89Zr-DFO-M16Ab1; 89Zr-M16Ab1

EC50 [2]: 9.1 nM
Kd [2]: 10.9 nM
B2: M16Ab1, fully human anti-MUC16 monoclonal antibody, full-length IgG1 (antibody, V domains shown)
VH: B1 VH
VL: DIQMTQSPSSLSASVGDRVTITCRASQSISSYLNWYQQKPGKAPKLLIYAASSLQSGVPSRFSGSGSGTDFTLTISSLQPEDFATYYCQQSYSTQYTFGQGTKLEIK
notes: also called MUC16 Ab1; MUC-16 Ab1

EC50 [2]: 10.3 nM
Kd [2]: 12.7 nM
B3: DFO-M16Ab1, M16Ab1 IgG1 conjugated with p-SCN-Bn-DFO (antibody, V domains shown)
VH: B1 VH
VL: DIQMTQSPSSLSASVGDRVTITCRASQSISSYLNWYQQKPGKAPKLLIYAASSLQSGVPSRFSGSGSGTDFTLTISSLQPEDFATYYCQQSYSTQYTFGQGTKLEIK
modifications: p-SCN-Bn-DFO (deferoxamine) conjugated, average of two DFO molecules per antibody; sites not stated
notes: also called DFO-MUC16 Ab 1; DFO-MUC16 AB1
